# Patent publication US20240116985A1, “STAPLED PEPTIDES AND METHODS THEREOF” (priority 2020, published 2024)
# Starred links: 1 amine or outer side, 2 acyl side, 3 side chain; linkers in the order of their positions; H or OH if unused. Positions of bridges follow the written chain, without caps; N, C: chain ends. Non-standard residues stand in square brackets, D forms with d. Primed or numbered codes have the meaning given here. No end group written: not given here. ξ: configuration not given here. *: point of attachment. PyrS2″ = (S)-3-amino-1-((pent-4-en-1-yloxy)carbonyl)pyrrolidine-3-carboxylic acid (stapling residue), C=CCCCOC(=O)N1CC[C@@](N[*:1])(C(=O)[*:2])C1; B5(4) = 2,2-bis(4-pentenyl)glycine = 2-amino-2-(pent-4-en-1-yl)hept-6-enoic acid (stitching residue), C=CCCCC(CCCC=C)(N[*:1])C(=O)[*:2]; B5(5) = 2,2-bis(4-pentenyl)glycine, 2-amino-2-(pent-4-en-1-yl)hept-6-enoic acid (stitching residue), C=CCCCC(CCCC=C)(N[*:1])C(=O)[*:2]; TfeGA = (S)-2-amino-3-((carboxymethyl)(2,2,2-trifluoroethyl)amino)propanoic acid, O=C([C@H](CN(CC(=O)[*:3])CC(F)(F)F)N[*:1])[*:2]; PyrS2 = (S)-3-amino-1-((pent-4-en-1-yloxy)carbonyl)pyrrolidine-3-carboxylic acid, C=CCCCOC(=O)N1CC[C@@](N[*:1])(C(=O)[*:2])C1; (NMe2)GlnR(3) = [NMe2]GlnR, N5,N5-dimethyl-L-glutamine, CN(C)C(=O)CC[C@H](N[*:1])C(=O)[*:2]; B5(3) = 2,2-bis(4-pentenyl)glycine (stitching residue), C=CCCCC(CCCC=C)(N[*:1])C(=O)[*:2]; B5 = 2-amino-2-(pent-4-en-1-yl)hept-6-enoic acid, C=CCCCC(CCCC=C)(N[*:1])C(=O)[*:2]; Phe(3-CF3) = N[C@@H](Cc1cccc(C(F)(F)F)c1)C(=O)O; Phe(3-COOH) = N[C@@H](Cc1cccc(C(=O)O)c1)C(=O)O; 2F3MeF = Cc1cccc(C[C@H](N[*:1])C(=O)[*:2])c1F; Phe(2-CF3) = N[C@@H](Cc1ccccc1C(F)(F)F)C(=O)O; Phe(2-Cl) = N[C@@H](Cc1ccccc1Cl)C(=O)O; Bta = N[C@@H](Cc1csc2ccccc12)C(=O)O; Lys(iPr) = CC(C)NCCCC[C@H](N)C(=O)O; hTyr = N[C@@H](CCc1ccc(O)cc1)C(=O)O; αAllylPro = C=CC[C@@]1(C(=O)O)CCCN1; tBuAla = CC(C)(C)C[C@H](N)C(=O)O; 3Thi = N[C@@H](Cc1ccsc1)C(=O)O; Cha = N[C@@H](CC1CCCCC1)C(=O)O; Thr(ol) = C[C@@H](O)[C@H](N)CO; ξβ3hD = NC(CC(=O)O)CC(=O)O; hSer = N[C@@H](CCO)C(=O)O; Nle = CCCC[C@H](N)C(=O)O; Aib = CC(C)(N)C(=O)O; iPr = CC(C)*
# B1: I-1268 (peptide)
# peptide: Ac-[αAllylPro]D[tBuAla][B5(3)]DTAA[Phe(3-CF3)]T[PyrS2″]F[Bta]S-NH2
# modifications: staple 1-4; staple 4-11 (inferred); not fully specified; printed as Ac-PL3-Asp-Npg-B5-Asp-Thr-Ala-Ala-3F3MeF-Thr-PyrS2-Phe-BztA-Ser-NH2
# Target: full-length beta-Catenin (Uniprot ID P35222) (Homo sapiens (Human)) (UniProt P35222)
# Assay: fluorescence polarization competition; displacement of 5FAM-TCF4(10-53) from full-length beta-catenin
# Target sequence in this assay (P35222 whole entry): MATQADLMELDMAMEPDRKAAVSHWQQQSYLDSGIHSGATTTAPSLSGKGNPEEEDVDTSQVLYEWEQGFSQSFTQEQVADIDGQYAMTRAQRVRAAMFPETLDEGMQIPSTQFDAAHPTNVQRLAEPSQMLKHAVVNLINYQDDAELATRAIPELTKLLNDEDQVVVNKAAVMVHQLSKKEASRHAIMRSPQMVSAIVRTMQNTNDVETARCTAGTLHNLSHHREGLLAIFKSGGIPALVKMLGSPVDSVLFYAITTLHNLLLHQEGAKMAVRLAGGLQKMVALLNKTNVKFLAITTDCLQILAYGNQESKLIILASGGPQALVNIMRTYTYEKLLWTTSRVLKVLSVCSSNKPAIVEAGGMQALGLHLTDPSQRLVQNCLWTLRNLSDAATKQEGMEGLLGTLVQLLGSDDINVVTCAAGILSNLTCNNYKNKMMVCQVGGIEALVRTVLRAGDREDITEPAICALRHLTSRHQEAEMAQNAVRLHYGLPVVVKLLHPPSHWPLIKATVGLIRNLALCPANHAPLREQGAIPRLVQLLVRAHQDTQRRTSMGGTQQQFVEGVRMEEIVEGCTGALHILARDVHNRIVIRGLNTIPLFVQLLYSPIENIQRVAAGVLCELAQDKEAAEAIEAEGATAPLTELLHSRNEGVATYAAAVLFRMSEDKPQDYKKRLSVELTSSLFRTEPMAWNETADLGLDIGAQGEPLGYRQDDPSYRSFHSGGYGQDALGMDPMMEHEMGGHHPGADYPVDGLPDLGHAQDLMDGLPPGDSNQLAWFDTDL
row,IC50,Binder
1,64 nM,"Ac-[αAllylPro]D[Cha][B5(5)]DDAAF[Cha][PyrS2″][Phe(2-Cl)][Bta]S-NH2 (staple 1-4, 4-11) [I-1113]"

# Target: full-length beta-Catenin (Uniprot ID P35222) (Homo sapiens (Human)) (UniProt P35222)
# Assay: fluorescence polarization competition; 10 nM full-length beta-catenin, 10 nM 5FAM-TCF4(10-53) probe
# Target sequence in this assay (P35222 whole entry): as above
row,IC50,Binder
1,37 nM,"Ac-[αAllylPro]D[tBuAla][B5(4)]D[Phe(3-COOH)]AAFF[PyrS2″][Phe(2-CF3)][Bta][MorphGln]-NH2 (staple 1-4, 4-11) [I-2543]"
2,8 nM,"Ac-[αAllylPro]D[tBuAla][B5(4)]D[Phe(3-COOH)][Aib]AF[Nle][PyrS2″][3Thi][Bta][(NMe2)GlnR(3)]-NH2 (staple 1-4, 4-11) [I-2551]"
3,12 nM,"Ac-[αAllylPro]D[tBuAla][B5(4)]D[Phe(3-COOH)][Aib]AF[Nle][PyrS2″][3Thi][Bta][(NHEt)GlnR]-NH2 (staple 1-4, 4-11) [I-2552]"

# Target: full-length beta-Catenin (Uniprot ID P35222) (Homo sapiens (Human)) (UniProt P35222)
# Assay: fluorescence polarization competition; full-length beta-catenin; competitor 5FAM-TCF4(10-53) probe
# Target sequence in this assay (P35222 whole entry): as above
row,EC50,Binder
1,24 nM,"Ac-[αAllylPro][ξβ3hD][tBuAla][B5(4)]D[TfeGA]AAFN[PyrS2″][3Thi][Bta]Q-NH2 (staple 1-4, 4-11) [I-1161]"

# Target: full-length beta-Catenin (Uniprot ID P35222) (Homo sapiens (Human)) (UniProt P35222)
# Assay: fluorescence polarization competition vs 5FAM-TCF4(10-53) on full-length beta-catenin
# Target sequence in this assay (P35222 2-781 limits assumed): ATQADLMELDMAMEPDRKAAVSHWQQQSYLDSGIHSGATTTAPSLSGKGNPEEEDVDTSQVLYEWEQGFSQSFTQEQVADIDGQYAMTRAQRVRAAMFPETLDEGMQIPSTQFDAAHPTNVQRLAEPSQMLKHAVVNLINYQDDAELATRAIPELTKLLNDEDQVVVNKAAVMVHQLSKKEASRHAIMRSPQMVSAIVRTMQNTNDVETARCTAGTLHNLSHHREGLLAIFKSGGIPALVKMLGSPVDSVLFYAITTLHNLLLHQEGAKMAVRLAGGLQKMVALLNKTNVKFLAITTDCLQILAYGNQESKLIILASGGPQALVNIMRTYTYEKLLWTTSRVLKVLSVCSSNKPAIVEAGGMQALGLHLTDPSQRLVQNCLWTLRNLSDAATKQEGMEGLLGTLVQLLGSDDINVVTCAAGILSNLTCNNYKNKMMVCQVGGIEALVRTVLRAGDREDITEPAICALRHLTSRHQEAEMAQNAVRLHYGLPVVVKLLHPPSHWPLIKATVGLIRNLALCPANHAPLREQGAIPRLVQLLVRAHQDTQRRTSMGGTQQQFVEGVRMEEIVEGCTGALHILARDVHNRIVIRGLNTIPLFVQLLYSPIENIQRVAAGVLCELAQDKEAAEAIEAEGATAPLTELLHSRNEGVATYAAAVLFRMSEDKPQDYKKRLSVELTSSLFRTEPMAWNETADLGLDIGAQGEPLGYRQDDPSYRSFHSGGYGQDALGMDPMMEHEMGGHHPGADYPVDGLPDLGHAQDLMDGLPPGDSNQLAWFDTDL
row,IC50,Binder
1,70 nM,"Ac-[αAllylPro]D[Cha][B5(4)]DDLLFS[PyrS2″][Phe(2-Cl)][Bta]Q-NH2 (staple 1-4, 4-11) [I-1149]"

# Target: full-length beta-Catenin (Uniprot ID P35222) (Homo sapiens (Human)) (UniProt P35222)
# Assay: fluorescence polarization competition; full-length beta-catenin + 5FAM-TCF4(10-53) probe
# Target sequence in this assay (P35222 whole entry): as the sequence (P35222 whole entry) above
row,EC50,Binder
1,198 nM,B1

# Target: full-length beta-Catenin (Uniprot ID P35222) (Homo sapiens (Human)) (UniProt P35222)
# Assay: fluorescence polarization competition; full-length beta-catenin, competitor 5FAM-TCF4(10-53) probe
# Target sequence in this assay (P35222 2-781 limits assumed): as the sequence (P35222 2-781 limits assumed) above
IC50,EC50,Binder
24 nM,,"Ac-[αAllylPro][ξβ3hD][tBuAla][B5(4)]D[TfeGA]AAFN[PyrS2″][3Thi][Bta]Q-NH2 (staple 1-4, 4-11) [I-1161]"
,75 nM,"[αAllylPro]D[tBuAla][B5]DDAAFF[PyrS2][Cha][Bta]Q-NH2 (staple 1-4, 4-11) [I-1331]"
,12 nM,"Ac-[αAllylPro]D[tBuAla][B5(4)]DD[Lys(iPr)]AFL[PyrS2″][Phe(2-Cl)][Bta][Thr(ol)] (staple 1-4, 4-11) [I-1313]"

# Target: full-length beta-Catenin (Uniprot ID P35222) (Homo sapiens (Human)) (UniProt P35222)
# Assay: fluorescence polarization competition; competitor 5FAM-TCF4(10-53) probe on full-length beta-catenin
# Target sequence in this assay (P35222 whole entry): as the sequence (P35222 whole entry) above
row,IC50,Binder
1,29 nM,"Ac-[αAllylPro]D[tBuAla][B5(4)]DHAA[Phe(3-COOH)]N[PyrS2″][3Thi][Bta]Q-NH2 (staple 1-4, 4-11; also: later eluting HPLC isomer composition) [I-2119]"
2,180 nM,"Ac-[αAllylPro]N[Cha][B5(4)]DQ[Lys(iPr)]AFN[PyrS2″]F[Bta]N-NH2 (staple 1-4, 4-11) [I-2111]"
3,75 nM,"[αAllylPro]D[tBuAla][B5]DDAAFF[PyrS2][Cha][Bta]Q-NH2 (staple 1-4, 4-11) [I-1331]"
4,325 nM,"Ac-[αAllylPro]D[tBuAla][B5(5)]D[Phe(3-COOH)]A[dA]FL[PyrS2″][2F3MeF][Bta]A-NH2 (staple 1-4, 4-11; also: later eluting HPLC isomer) [I-2099]"
5,105 nM,"Ac-[αAllylPro]D[tBuAla][B5(4)]DWAA[Phe(3-COOH)]L[PyrS2″][3Thi][Bta]Q-NH2 (staple 1-4, 4-11) [I-2129]"
6,36 nM,"Ac-[αAllylPro]D[tBuAla][B5(4)]DWAA[Phe(3-COOH)]N[PyrS2″][3Thi][Bta]Q-NH2 (staple 1-4, 4-11) [I-2127]"
7,21 nM,"Ac-[αAllylPro]D[tBuAla][B5(4)]DHAA[Phe(3-COOH)]N[PyrS2″][3Thi][Bta]Q-NH2 (staple 1-4, 4-11; also: earlier eluting HPLC isomer composition) [I-2118]"
8,68 nM,"Ac-[αAllylPro]D[tBuAla][B5(4)]DYAA[Phe(3-COOH)]L[PyrS2″][3Thi][Bta]Q-NH2 (staple 1-4, 4-11) [I-2126]"
9,88 nM,"Ac-[αAllylPro]N[Cha][B5(4)]DQ[Lys(iPr)]AFN[PyrS2″]F[Bta]K-NH2 (staple 1-4, 4-11) [I-2110]"
10,136 nM,"Ac-[αAllylPro]N[Cha][B5(4)]DQ[Lys(iPr)]AFN[PyrS2″]F[Bta]H-NH2 (staple 1-4, 4-11) [I-2109]"
11,260 nM,"Ac-[αAllylPro]D[tBuAla][B5(4)]D[Phe(3-COOH)]A[dA]FL[PyrS2″][2F3MeF][Bta]A-NH2 (staple 1-4, 4-11; also: earlier-eluting HPLC isomer composition) [I-2098]"
12,26 nM,"Ac-[αAllylPro]D[tBuAla][B5(4)]DYAA[Phe(3-COOH)][hSer][PyrS2″][3Thi][Bta]Q-NH2 (staple 1-4, 4-11; also: later eluting HPLC isomer composition) [I-2125]"
13,12 nM,"Ac-[αAllylPro]D[tBuAla][B5(4)]DHAA[Phe(3-COOH)]L[PyrS2″][3Thi][Bta]Q-NH2 (staple 1-4, 4-11; also: earlier eluting HPLC isomer composition) [I-2122]"
14,273 nM,"Ac-[αAllylPro]N[Cha][B5(4)]DQ[Lys(iPr)]AF[Lys(iPr)][PyrS2″]F[Bta][hSer]-NH2 (staple 1-4, 4-11) [I-2102]"
15,29 nM,"Ac-[αAllylPro]D[tBuAla][B5(4)]DYAA[Phe(3-COOH)][hSer][PyrS2″][3Thi][Bta]Q-NH2 (staple 1-4, 4-11; also: earlier eluting HPLC isomer composition) [I-2124]"
16,12 nM,"Ac-[αAllylPro]D[tBuAla][B5(4)]DD[Lys(iPr)]AFL[PyrS2″][Phe(2-Cl)][Bta][Thr(ol)] (staple 1-4, 4-11) [I-1313]"
17,164 nM,"Ac-[αAllylPro]N[Cha][B5(3)]DQ[Lys(iPr)]AFN[PyrS2″]F[Bta]Q-NH2 (staple 1-4, 4-11) [I-2113]"
18,12 nM,"Ac-[αAllylPro]D[tBuAla][B5(4)]DHAA[Phe(3-COOH)]L[PyrS2″][3Thi][Bta]Q-NH2 (staple 1-4, 4-11; also: later eluting HPLC isomer composition) [I-2123]"
19,501 nM,"Ac-[αAllylPro]N[Cha][B5(3)]DQ[Lys(iPr)]AFN[PyrS2″]F[Bta]T-NH2 (staple 1-4, 4-11) [I-2112]"
20,29 nM,"Ac-[αAllylPro]D[tBuAla][B5(4)]D[hTyr]AA[Phe(3-COOH)]N[PyrS2″][3Thi][Bta]Q-NH2 (staple 1-4, 4-11; also: later eluting HPLC isomer composition) [I-2115]"
21,29 nM,"Ac-[αAllylPro]D[tBuAla][B5(4)]DWAA[Phe(3-COOH)][hSer][PyrS2″][3Thi][Bta]Q-NH2 (staple 1-4, 4-11) [I-2128]"
22,19 nM,"Ac-[αAllylPro]D[tBuAla][B5(4)]D[hTyr]AA[Phe(3-COOH)][hSer][PyrS2″][3Thi][Bta]Q-NH2 (staple 1-4, 4-11; also: earlier eluting HPLC isomer composition) [I-2116]"
23,19 nM,"Ac-[αAllylPro]D[tBuAla][B5(4)]D[hTyr]AA[Phe(3-COOH)][hSer][PyrS2″][3Thi][Bta]Q-NH2 (staple 1-4, 4-11; also: later eluting HPLC isomer composition) [I-2117]"
24,32 nM,"Ac-[αAllylPro]D[tBuAla][B5(4)]D[hTyr]AA[Phe(3-COOH)]N[PyrS2″][3Thi][Bta]Q-NH2 (staple 1-4, 4-11; also: earlier eluting HPLC isomer composition) [I-2114]"
25,424 nM,"Ac-[αAllylPro]D[tBuAla][B5(3)]D[Phe(3-COOH)]A[dA]FL[PyrS2″][2F3MeF][Bta][dA]-NH2 (staple 1-4, 4-11) [I-2101]"

# Target: full-length beta-Catenin (Uniprot ID P35222) (Homo sapiens (Human)) (UniProt P35222)
# Assay: fluorescence polarization competition, 5FAM-TCF4 10-53 probe on full-length beta-catenin
# Target sequence in this assay (P35222 2-781 limits assumed): as the sequence (P35222 2-781 limits assumed) above
row,EC50,Binder
1,70 nM,"Ac-[αAllylPro]D[Cha][B5(4)]DDLLFS[PyrS2″][Phe(2-Cl)][Bta]Q-NH2 (staple 1-4, 4-11) [I-1149]"
2,64 nM,"Ac-[αAllylPro]D[Cha][B5(5)]DDAAF[Cha][PyrS2″][Phe(2-Cl)][Bta]S-NH2 (staple 1-4, 4-11) [I-1113]"
